Data on 74 sequences can be found in the supplement of paper PMC12636428.

In this data set the test system is Saccharomyces cerevisiae. The experiment in a line: transcriptional activation domain activity (GFP:mCherry ratio, weighted mean of sorted bins, harmonized to initial dataset scale) (arbitrary fluorescence ratio units); higher = stronger transcriptional activation. The note with it: beta-estradiol 1 µM; induction time 4 h. The essentials: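 The listed activation activity is a read-weighted mean of bin median fluorescence, averaged across barcodes and linearly mapped onto the initial dataset scale. Barcoded tiles, fused to an estradiol-inducible synthetic transcription factor, were integrated at URA3 in yeast diploids bearing a GFP reporter. Cells were held 4 hours at 30 °C in SC with 1 uM beta-estradiol, sorted into 8 GFP:mCherry bins, and sequenced, and tiles with fewer than 50 reads were excluded.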

For the sequence “IQVRLTAFDCLFVLKGLTESTLTQYFLSVIRDDPCVYVSHYVARAMLAWLGLA”, the “transcriptional activation domain activity” value turned out to be 55600.

As to “IRCAKGFKSTDETKIFKTGQGGMKGNMYVTLSWNRWGKLLWATRIITRDFNPV”, the “transcriptional activation domain activity” value was found to be 46000. The figure for “IRDRFNHGPCKVYILFMNCTYLPMIPGLFRIIEILRYYLRLRWLRCCSAAGPD” is 60300; for “IRFTLPTLVFAAVQLARRFKLLEAGGWSEWARKMCSLYKFVHQIIGLLYTRVE” it is 62600; for “IRGKTLPKYFPRFHMWGHIDADIQLMSKGLITPVCIEMVYGMHPFVVYKLFMF” it is 62100. As for “IRGLLILRYQRGYKDLNHCEPQVIFYDRLCGFLVLGWFLHYFPFFLMSRQLFL”, the “transcriptional activation domain activity” value was determined as 88200. The result for “IRGMCPEKPQIREIVYLLRGLIVNRILLMTLKKRWNVQYGLHSTRDPIAVPFH” reads 53200. The figure for “IRGNMSGSEFHWTCKSLGLCGILVRCLAWYCISKMYVLPTCYRRMYCCEVYKD” is 49700; for “IRIADMHANFFYKNINYTLSLFIFQIWCHFNSTYLFDYTLLMLFNLLFTSLPV” it is 37100; for “IRLELGIIEDFFGLTLCMSKYLLYHYVISLKLSACFFAVHGYAPNGLDYPWVL” it is 55000. The figure for “IRLLFVWIVCTRIVLASRSACGRCYRSYLAMRSRSGWRWVSRRTAAVLVLRWC” is 61500.

“IRLLISKHWLPVLFSFRGFMELTTTVPFLLSTYIPNGRYLYVPYFIRSWVLLL”: the “transcriptional activation domain activity” value stood at 72800. The figure for “IRLMPFYSSPNVDVAEENLRCYENTAVFLLSNFQYLIVALVYCDGEPYRENIS” is 41000; for “IRLVSSEMIRYLKKHDFKDITYYTLYISLMGFSKRYYRQGILMLKCVDIEVIY” it is 74500. The figure for “IRNHSLPTNLQVKDKIEDLNEIKFFNDFEKLEFFNKYAKVNTNNDVNENNDLW” is 46800. The result for “IRPSTPAATRSTSPPRPRPPRASRSPRPRRTRGRRSSKLRRKATSPPPATAPS” reads 38200.

As for “IRQLFGNYVLLYFFPWGFGCGFLPVLFPVQTCRIYHYLLFYFFFLSPFFFSIP”, the “transcriptional activation domain activity” value was 36700.

As for “IRRHFNRKYHQCLLVVIVLGVYLAIGLNWGRFYLVCWVLLHFCIVILGPLYFL”, the “transcriptional activation domain activity” value is 53400. The figure for “IRSSSHLFPISPFYFVFLFWSSFSVFTMLLLPPTIPRSNQFRAFSSFLWFSWI” is 67000; for “IRSWGDAVLAHSPLFDHVDGDAACPCSRCCSGVIAWSFWERVIRIVPMHLFSA” it is 64500; for “IRTLRRSAREVLTVYWVLHGILPFPSIHSLDPYILSRRWSLCLNCLFLYALYF” it is 49700.

Consider “IRWHIREHQLRVLAKFCADRIGDPYVYCPCIIAKGLVLALIRIVSALLEKPAI”, for which the “transcriptional activation domain activity” value amounted to 56200.

Consider “IRYLDHTQLLGEPLLKRTFMGGHIFIPTLIDTALCQSYFSSHILDILRHLTFS”, for which the “transcriptional activation domain activity” value was 63300.

With “IRYWLLTFFVMDFLPNRELRLLLASWLNTLVNDPILKKHQDGLSIVRKLIKVA”, the “transcriptional activation domain activity” value was determined as 51600. Regarding “IRYWTWMVWVIIIGSTLAFHVWIAIYSQFDVFTFESELFYLYTTLNFWTCIVF”, the “transcriptional activation domain activity” value was 57100. The figure for “ISAQEFSRNFTEDVDESLQSEIDLMNYDNEALNQLMAIDLDKLLGIFPNLSNF” is 140000; for “ISCAVSACIVCVINCAVTVWASVNNKANKGVLFEGDCEKVRQMNTGLHLLINL” it is 66400; for “ISCLGLTGWAGRFGSLYYIISMGGCSLSLGAMIAHVELKDSANCWWWFRYGFW” it is 77400.

“ISGQEHKDMCRILLGLIIDLPLPSGQVTSRIIRLVHALLDFLYLAQLPSQTTN”: the “transcriptional activation domain activity” value worked out at 61400. The result for “ISIAQIEIAILFHISFFIFYFVSISFLLLYFICCILCTYVLLIYSLSFLYLVV” reads 45800. The result for “ISICLPELRLFMYCKFLYWLEVMSLLNDLEHVKQMLKDVLGCGKMQLKVFKFT” reads 62000; that for “ISKTIAVLELACDVLHHNPGVFIISVLLLVIFIAFTAIWMVLFNRLWLIGHLN”, 56000. Turning to “ISLCLLHCVIMVFGLGLQLLVPSIYTRIEHVSYESTWNFAYYCAGWFMLKVCI”, the “transcriptional activation domain activity” value amounted to 38100. The result for “ISLGDFIVTLNYLFCYFLMQAPSLKLKPTSLFFFFLCIWLDFVLCLLILLRVA” reads 46400. The figure for “ISLLTLSFFYCFLGVFLPGFSLSLLPFPLFCFFLAFFLPCFSLSLLPFYPFFF” is 56500. The figure for “ISLLVLGCWIPFIILMEGYLQSLTFESFPYPGLYCFTSQGSHIIYLCWVLIAI” is 60200. As to “ISLVYGVRLAIRSSIFVTVRTHLARSIRYQSGLRAKQPIPTRLFLLYFLQLKY”, the “transcriptional activation domain activity” value worked out at 56900. The figure for “ISMEKIGRRAFNKGMKNIDEGPETENDATENSLTTILNDLEGPLEDFSENFID” is 34300. The figure for “ISNHQVYADWWYAWCLTYFMGTHKDIFIVLKKSLKWLPIVGWGMQFFNFIFLA” is 48400; for “ISSISSIFPIFFPYFPSIYLIFFFIFFLPFFPSLPILLFLLFLLFLLFTLPLC” it is 43700. For “ISSSEKESDGENDSDSEENEQNDQSEIFPEFLGRRDPWQAVTVFILALLVFRN”, the “transcriptional activation domain activity” value was determined as 66500.

Take “ISTAYFSNECGLVDRLITLAFLALKSKTDMSMVAYHSYCAIIEASLHSRGIWN”: the “transcriptional activation domain activity” value was 57300. In the case of “ISVLGNQQIPGISHGDGLLPDVDGLLGNDTFWSFTDAAWMGEIEDNISGFIWD”, the “transcriptional activation domain activity” value came to 143000.

Turning to “ISVLLVPYAWAILLAFLLLPVFLCVICMDWTYIPFYLPFFPMIGVFSIVIPLF”, the “transcriptional activation domain activity” value was 21100.

Regarding “ISYVSLEIRRTVFGLRLFAVAFYCTFFYWLMIRPNCKARFWCNFQPFSWIQAI”, the “transcriptional activation domain activity” value was 43100. The result for “ITALVIFWSIPVAFVGSLSNLDSLTNKVHFLRFLNHLPKKLKGLVTSLLPTIL” reads 34700; that for “ITFLFIFFFYFFTYSFFYISFFRTCFPEFAHQMFEMVLLWNLFLLFVFCLFFF”, 57600; that for “ITGTAYLGKFLRNTLGYDLEVFHAELMVKADIFSLNPHEIMNLIVILFHLMLY”, 57900.

Regarding “ITHCPSTRVAYTYIVGLSTNAVMIGFVLCPHCFLAFQNPSQTLWFLSLFLLCL”, the “transcriptional activation domain activity” value worked out at 47700. As to “ITLYPPNPYTNEPVPIRPISYLHLSGLLNMYVIRRLRRENWIRIFFRILFPFF”, the “transcriptional activation domain activity” value worked out at 26700. The result for “ITMCSVTSVGYLGIVRWLVICLGFQPYKLRCVTLVYLTHVMTFFCIIILGIFN” reads 68800; that for “ITMQQIQRDSDKYLCIQGVFELFRSPLYTVLTLDKSVLGPTVLVRLLTVLAER”, 39400.

As to “ITNFSHPVSWLGTISPLSSLISSSLSFLSEFFSLFPLFFSFFLLFSPSISSWF”, the “transcriptional activation domain activity” value was 67500. For “ITNGLYTGLGIKVPITKLQKYTPLEVALHSWRLVYMYFWSSFCLLIVCLIIFL”, the “transcriptional activation domain activity” value was found to be 65800. The result for “ITPYPVLLSGEDTSSKISRMRKVLRDRARTDNWIYLIPTLSTLAWLFNYRCRT” reads 66100.

Turning to “ITQMQQTDFYHVDQDDYVHSFVIHNSRLMWNVAIRAIVMRFIELQSQASLLQY”, the “transcriptional activation domain activity” value came to 51800. “ITQRLGENIICAVCITYLHSLLLVTILDRSEGCLLQYSLRMHIASKFQPSHQF”: the “transcriptional activation domain activity” value amounted to 51500.

Turning to “ITQVEDRSKGYLIGLVKELVAEYVEDLNALVLLACSLKVGIQVSSAAGMIYKK”, the “transcriptional activation domain activity” value was 53600.

For the sequence “ITVFNYTVYDIISPTGTNYLAFMCWIGLWSLVFHWILAITNCCNWLRYVTRFP”, the “transcriptional activation domain activity” value came out at 32700. The figure for “ITVYMVIIIFCLFQFFLFLIIVGLVPRIDTTYFGWSCWGYGRIIFSWWISGSF” is 34400; for “ITWSQLRRRFTPGFETFLDIGIERGWYSCNNTLQVMVFRWVFIPWLQQELSAY” it is 30600. The result for “IVCGCMGAAGFRYFLNLPFLWFFLLHWCWWFTNDYLLYHVLVQEHTLPFNKFV” reads 32500; that for “IVCRTEKTSHMLIDFSEHLRINVYVLGATFVRLVHLLKVKIPLVDPVLYIVRF”, 59900; that for “IVEGLLGVDFIWQDNLPDLIDQFTNLLTLGLDFQAIDFHGGLSWNYLPSTFIN”, 63500. The result for “IVFLFLCFAGFWMCVVCLLLLLYTAVPLIPPHSSSSFDSFGLFMLLLVSCMRF” reads 48000; that for “IVFLLRVLIRCLPTLTQILDFELVSAELSLAELPDTQFKLKELGVSTKVVFTQ”, 45800; that for “IVIPGGRPGSVGGGGWFGGSSVFLEGLEGLEDGVMFGNAWEFDLLDLEWLFPF”, 121000. Take “IVITCLPVTLLLFGKMVDVLDDYYLGIFELVLLFFAFYIFPIFYIFARVILLV”: the “transcriptional activation domain activity” value was 53800. The result for “IVKGTDAQQLAQIVVANLFCAILMRQDYVINAFFNFFCSVPTSWPLAIRRVCA” reads 53100; that for “IVLGFLPIKSWQQHCFYIIMSFGSFVSTAFYSRFVELWGLLWPLWYLTILICV”, 42600.

For the sequence “IVLSVLCSLLNTTLKYNPATWRVPYDHVVFKDSRQILVSYCLQFLLVLILYPV”, the “transcriptional activation domain activity” value turned out to be 46600. The result for “IVLYLRCFWLSVMFYTYSLFFIKMTFLLNYYRLLLVSKMRSVCIAAIVIIVLW” reads 72100. The figure for “IVMGKGTVHLCYLILSFFMYLLYSLLSHTQNILLDPLHTLFVSTFCLLHHSVF” is 56200; for “IVNFTLLVLIVPRLSIWCRPHSKRMHGAGVWDSFVLARASIFVSVLGVLCVAL” it is 54400.
